{
  "source": "IntAct's records for PubMed 31515488",
  "parents": {"B1": {"name": "Ensconsin (Homo sapiens), Q14244 (parent)", "chain": "MAELGAGGDGHRGGDGAVRSETAPDSYKVQDKKNASSRPASAISGQNNNHSGNKPDPPPVLRVDDRQRLARERREEREKQLAAREIVWLEREERARQHYEKHLEERKKRLEEQRQKEERRRAAVEEKRRQRLEEDKERHEAVVRRTMERSQKPKQKHNRWSWGGSLHGSPSIHSADPDRRSVSTMNLSKYVDPVISKRLSSSSATLLNSPDRARRLQLSPWESSVVNRLLTPTHSFLARSKSTAALSGEAASCSPIIMPYKAAHSRNSMDRPKLFVTPPEGSSRRRIIHGTASYKKERERENVLFLTSGTRRAVSPSNPKARQPARSRLWLPSKSLPHLPGTPRPTSSLPPGSVKAAPAQVRPPSPGNIRPVKREVKVEPEKKDPEKEPQKVANEPSLKGRAPLVKVEEATVEERTPAEPEVGPAAPAMAPAPASAPAPASAPAPAPVPTPAMVSAPSSTVNASASVKTSAGTTDPEEATRLLAEKRRLAREQREKEERERREQEELERQKREELAQRVAEERTTRREEESRRLEAEQAREKEEQLQRQAEERALREREEAERAQRQKEEEARVREEAERVRQEREKHFQREEQERLERKKRLEEIMKRTRRTEATDKKTSDQRNGDIAKGALTGGTEVSALPCTTNAPGNGKPVGSPHVVTSHQSKVTVESTPDLEKQPNENGVSVQNENFEEIINLPIGSKPSRLDVTNSESPEIPLNPILAFDDEGTLGPLPQVDGVQTQQTAEVI"}, "B2": {"name": "C-C motif chemokine 4 (Homo sapiens), P13236 (parent)", "chain": "MKLCVTVLSLLMLVAAFCSPALSAPMGSDPPTACCFSYTARKLPRNFVVDYYETSSLCSQPAVVFQTKRSKQVCADPSESWVQEYVYDLELN", "partner": "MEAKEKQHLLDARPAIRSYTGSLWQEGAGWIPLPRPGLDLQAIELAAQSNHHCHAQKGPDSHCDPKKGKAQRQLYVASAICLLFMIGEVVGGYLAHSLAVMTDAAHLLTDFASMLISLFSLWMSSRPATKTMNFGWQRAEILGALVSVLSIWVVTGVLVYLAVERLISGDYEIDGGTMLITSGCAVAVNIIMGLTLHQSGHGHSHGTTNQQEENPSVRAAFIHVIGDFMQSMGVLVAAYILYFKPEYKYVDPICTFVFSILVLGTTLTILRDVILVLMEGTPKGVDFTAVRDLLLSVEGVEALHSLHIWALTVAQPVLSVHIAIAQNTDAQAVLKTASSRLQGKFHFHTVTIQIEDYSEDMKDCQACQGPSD"}, "B3": {"name": "Protein BEX5 (Homo sapiens), Q5H9J7 (parent)", "chain": "MENVPKENKVVEKAPVQNEAPALGGGEYQEPGGNVKGVWAPPAPGFGEDVPNRLVDNIDMIDGDGDDMERFMEEMRELRRKIRELQLRYSLRILIGDPPHHDHHDEFCLMP", "partner": "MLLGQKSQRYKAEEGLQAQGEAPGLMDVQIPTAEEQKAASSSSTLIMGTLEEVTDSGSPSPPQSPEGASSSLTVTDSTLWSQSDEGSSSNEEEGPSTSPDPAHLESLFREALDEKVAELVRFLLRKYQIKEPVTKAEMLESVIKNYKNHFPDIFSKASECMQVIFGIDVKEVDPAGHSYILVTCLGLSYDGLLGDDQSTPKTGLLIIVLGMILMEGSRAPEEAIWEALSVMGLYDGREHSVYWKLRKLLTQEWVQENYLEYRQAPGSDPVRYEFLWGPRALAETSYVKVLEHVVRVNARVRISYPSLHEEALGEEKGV"}, "B4": {"name": "DNA topoisomerase 3-beta-1 (Homo sapiens), O95985 (parent)", "chain": "MKTVLMVAEKPSLAQSIAKILSRGSLSSHKGLNGACSVHEYTGTFAGQPVRFKMTSVCGHVMTLDFLGKYNKWDKVDPAELFSQAPTEKKEANPKLNMVKFLQVEGRGCDYIVLWLDCDKEGENICFEVLDAVLPVMNKAHGGEKTVFRARFSSITDTDICNAMACLGEPDHNEALSVDARQELDLRIGCAFTRFQTKYFQGKYGDLDSSLISFGPCQTPTLGFCVERHDKIQSFKPETYWVLQAKVNTDKDRSLLLDWDRVRVFDREIAQMFLNMTKLEKEAQVEATSRKEKAKQRPLALNTVEMLRVASSSLGMGPQHAMQTAERLYTQGYISYPRTETTHYPENFDLKGSLRQQANHPYWADTVKRLLAEGINRPRKGHDAGDHPPITPMKSATEAELGGDAWRLYEYITRHFIATVSHDCKYLQSTISFRIGPELFTCSGKTVLSPGFTEVMPWQSVPLEESLPTCQRGDAFPVGEVKMLEKQTNPPDYLTEAELITLMEKHGIGTDASIPVHINNICQRNYVTVESGRRLKPTNLGIVLVHGYYKIDAELVLPTIRSAVEKQLNLIAQGKADYRQVLGHTLDVFKRKFHYFVDSIAGMDELMEVSFSPLAATGKPLSRCGKCHRFMKYIQAKPSRLHCSHCDETYTLPQNGTIKLYKELRCPLDDFELVLWSSGSRGKSYPLCPYCYNHPPFRDMKKGMGCNECTHPSCQHSLSMLGIGQCVECESGVLVLDPTSGPKWKVACNKCNVVAHCFENAHRVRVSADTCSVCEAALLDVDFNKAKSPLPGDETQHMGCVFCDPVFQELVELKHAASCHPMHRGGPGRRQGRGRGRARRPPGKPNPRRPKDKMSALAAYFV"}, "B5": {"name": "Zinc finger protein Aiolos (Homo sapiens), Q9UKT9 (parent)", "chain": "MEDIQTNAELKSTQEQSVPAESAAVLNDYSLTKSHEMENVDSGEGPANEDEDIGDDSMKVKDEYSERDENVLKSEPMGNAEEPEIPYSYSREYNEYENIKLERHVVSFDSSRPTSGKMNCDVCGLSCISFNVLMVHKRSHTGERPFQCNQCGASFTQKGNLLRHIKLHTGEKPFKCHLCNYACQRRDALTGHLRTHSVEKPYKCEFCGRSYKQRSSLEEHKERCRTFLQSTDPGDTASAEARHIKAEMGSERALVLDRLASNVAKRKSSMPQKFIGEKRHCFDVNYNSSYMYEKESELIQTRMMDQAINNAISYLGAEALRPLVQTPPAPTSEMVPVISSMYPIALTRAEMSNGAPQELEKKSIHLPEKSVPSERGLSPNNSGHDSTDTDSNHEERQNHIYQQNHMVLSRARNGMPLLKEVPRSYELLKPPPICPRDSVKVINKEGEVMDVYRCDHCRVLFLDYVMFTIHMGCHGFRDPFECNMCGYRSHDRYEFSSHIARGEHRALLK", "partner": "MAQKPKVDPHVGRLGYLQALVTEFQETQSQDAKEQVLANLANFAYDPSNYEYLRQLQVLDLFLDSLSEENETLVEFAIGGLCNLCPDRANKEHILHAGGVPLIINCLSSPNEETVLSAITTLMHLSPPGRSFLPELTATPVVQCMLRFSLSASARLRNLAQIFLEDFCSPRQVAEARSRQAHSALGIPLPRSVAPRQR"}, "B6": {"name": "Ligand of Numb protein X 2 (Homo sapiens), Q8N448 (parent)", "chain": "MGTTSDEMVSVEQTSSSSLNPLCFECGQQHWTRENHLYNYQNEVDDDLVCHICLQPLLQPLDTPCGHTFCYKCLRNFLQEKDFCPLDRKRLHFKLCKKSSILVHKLLDKLLVLCPFSSVCKDVMQRCDLEAHLKNRCPGASHRRVALERRKTSRTQAEIENENGPTLLDPAGTLSPEADCLGTGAVPVERHLTSASLSTWSEEPGLDNPAFEESAGADTTQQPLSLPEGEITTIEIHRSNPYIQLGISIVGGNETPLINIVIQEVYRDGVIARDGRLLAGDQILQVNNYNISNVSHNYARAVLSQPCNTLHLTVLRERRFGNRAHNHSDSNSPREEIFQVALHKRDSGEQLGIKLVRRTDEPGVFILDLLEGGLAAQDGRLSSNDRVLAINGHDLKYGTPELAAQIIQASGERVNLTIARPGKPQPGNTIREAGNHSSSSQHHTPPPYYSRPSSHKDLTQCVTCQEKHITVKKEPHESLGMTVAGGRGSKSGELPIFVTSVPPHGCLARDGRIKRGDVLLNINGIDLTNLSHSEAVAMLKASAASPAVALKALEVQIVEEATQNAEEQPSTFSENEYDASWSPSWVMWLGLPSTLHSCHDIVLRRSYLGSWGFSIVGGYEENHTNQPFFIKTIVLGTPAYYDGRLKCGDMIVAVNGLSTVGMSHSALVPMLKEQRNKVTLTVICWPGSLV", "partner": "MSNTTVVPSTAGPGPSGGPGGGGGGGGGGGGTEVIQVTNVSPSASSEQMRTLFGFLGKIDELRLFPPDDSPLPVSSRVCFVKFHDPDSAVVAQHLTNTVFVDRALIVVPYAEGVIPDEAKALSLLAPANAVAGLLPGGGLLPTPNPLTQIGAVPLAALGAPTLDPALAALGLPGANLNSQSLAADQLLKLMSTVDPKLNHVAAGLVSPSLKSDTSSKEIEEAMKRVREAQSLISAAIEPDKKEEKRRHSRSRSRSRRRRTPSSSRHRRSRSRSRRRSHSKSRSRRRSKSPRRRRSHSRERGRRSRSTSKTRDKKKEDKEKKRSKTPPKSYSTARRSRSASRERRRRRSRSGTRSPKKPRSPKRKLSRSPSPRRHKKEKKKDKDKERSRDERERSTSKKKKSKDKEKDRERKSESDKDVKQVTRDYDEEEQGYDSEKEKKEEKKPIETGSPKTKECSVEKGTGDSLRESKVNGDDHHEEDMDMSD"}},
  "data": [
    {"variants_of": "B1", "conditions": "with ccdb1_human CCNDBP1, O95273", "values": [
      {"variant": "M429T", "effect of a mutation on the interaction": "with no effect"},
      {"variant": "P649L", "effect of a mutation on the interaction": "with no effect"}
    ]},
    {"variants_of": "B2", "conditions": "with znt2_human SLC30A2, Q9BRI3", "values": [
      {"variant": "A21V", "effect of a mutation on the interaction": "disrupting interaction strength"},
      {"variant": "C18R", "effect of a mutation on the interaction": "with no effect"},
      {"variant": "A16T", "effect of a mutation on the interaction": "disrupting interaction strength"}
    ]},
    {"variants_of": "B3", "conditions": "with maga8_human MAGEA8, P43361", "values": [
      {"variant": "E74D", "effect of a mutation on the interaction": "with no effect"}
    ]},
    {"variants_of": "B4", "conditions": "with trim1_human MID2, Q9UJV3", "values": [
      {"variant": "R267W", "effect of a mutation on the interaction": "disrupting interaction strength"}
    ]},
    {"variants_of": "B4", "conditions": "with tri41_human TRIM41, Q8WV44", "values": [
      {"variant": "R267W", "effect of a mutation on the interaction": "disrupting interaction strength"}
    ]},
    {"variants_of": "B5", "conditions": "with armc7_human ARMC7, Q9H6L4", "values": [
      {"variant": "A24V", "effect of a mutation on the interaction": "with no effect"},
      {"variant": "N119D", "effect of a mutation on the interaction": "with no effect"}
    ]},
    {"variants_of": "B6", "conditions": "with srs11_human SRSF11, Q05519", "values": [
      {"variant": "S141A", "effect of a mutation on the interaction": "with no effect"},
      {"variant": "S198P", "effect of a mutation on the interaction": "with no effect"}
    ]}
  ]
}
